Experimental data from the DeepSol protein solubility set.

Assay: soluble on expression in E. coli; label from the status in PepcDB or PDB records
With “KRKEMISARLGDGLSYLYMASATLKKYEDEGRQQGDLNFVHYAVQYCLYNAAKSLNEAYANFPVKYVGGVLKGLLFPLGNHFDKPSDELSVSIAEAMMTPGVQRDRLTHLCYIGKSENDSVGLMENAFLAMYDVKPLERKLMKAAKDGKVARKGLLPDRLQQALDAGVLTEQEVEKITAADQLRYKAIQVDHFSHDFSEVRTDSPKKSHLNPAA” the “soluble on expression in E. coli” value was “not soluble”.
For “MNWRAASAPPRSSPGLTSTCSRAAHWRDRGGAAAHAVLANVPQGRTLRDDAADLGWKPNHKFKGKLILTAPDAMPVDLNGVTITIAGPLQDELQALQDMHDQWLRQRKADPTRPPASAMLAAFVDKSVPNLSSIVLLAECGGKTMLLTGDARGDKIIEGLETTGKLAKDETLHVDILKVPHHGSDNNMETSFFERVTADHYVFSGNGDYGNPERATLQMLLDARGVAEDFTIHLTYPIEEIDAGREADWVKQQAKEAGRAKPPKGGVRPDWSAEEQGLVAFFANNPELAAHLIDLLDKAVVLEHHHHHH”, the “soluble on expression in E. coli” value was “not soluble”.
For “MSLEDIWHKADELCEKNIKIVIRNLGLNLTISFQCYSHLLQNIPSMLGSIPFQRILSERKNKFDNAIVVSAGPSLTKQLPLLKAYQDKAVVFCADGALSMLEKEGVVPDYVLNIDFEDLPLRFFKNKQNKLSLNILSCATHPSLVHFLDNKSVILRDDPLYQSFNLNDFGYIDTGTHVSHFSYTLALALGFKNIIMIGQDLAFDEEGNSHSKGFDFGEKFEEEHKKYKLKTQAYGGKGEVLTHITWNDYRVKLEYLFACNDQKAKFYNATEGGARINFTEELSFKECCEKLLTKEKPKFELPKSLTKNRSDKLLAKFKEKIQKDQENAKRFLDDEGHHHHHH”, the “soluble on expression in E. coli” value was “soluble”.
In the case of “MKNNLPIIALDFASAEETLAFLAPFQQEPLFVKVGMELFYQEGPSIVKQLKERNCELFLDLKLHDIPTTVNKAMKRLASLGVDLVNVHAAGGKKMMQAALEGLEEGTPAGKKRPSLIAVTQLTSTSEQIMKDELLIEKSLIDTVVHYSKQAEESGLDGVVCSVHEAKAIYQAVSPSFLTVTPGIRMSEDAANDQVRVATPAIAREKGSSAIVVGRSITKAEDPVKAYKAVRLEWEGIKS”, the “soluble on expression in E. coli” value is reported as “soluble”.
With “MTTRLIVKNLPSTCTEQQLRKFFEKYGQISDASLKYTKEGKFRGFAFVGFLDEGSASNALAKSNQTFFNSKKLTVEECRPFGDANKPRAWSKYAKDSSAYKRTHGEKEEANPGKSDETEEPAPKKQKDDAKFDQFLEAKGVVVEKEVKLSKDKSAEAKKLMAELMDGIGGDTSLSLIFSGLPSSAKGKNIKEWLNPIRVKAMKIARNEDVAAAFVTFNRPPDVRRALQKDGQFLGGFKIGIEKIETPEPEHEVIEEHGASLESRDKEEETVREKILETGRLFLRNLPYATKEDDLQFLFKKYGEVSEVQVVIDKKTGACKGFAIVEFVFPEAAVAAYSALDGYVFKGRMMHILPGDEKRTKEGEEESEVVPDDPDNPLKAEAKKEKKKKSFKEEKDEQKKASAGKTAHSWNALFLGANAIADTLAQRLNVKKSDLLTSDQGESAGVRLALAETRLVRETRDFFLENGVKLDAFSKPAEKRSDTVMLAKNLPAGVESEELQRMFEKFGDCTKVLMPTEGGVSALVIMGNPVDAKKAFRALAYSRFRSQPLYLEWAPYDVMGATAPPAEDKTAEVADKPKLSKREMTYEEKRKERKNRQQGITEEEKDDGEVIEEEEKPKEVEAEDKKKSSKKQSEKEIESGSTLFVKNLAFDTTDGSLEFLFRKRYGDLVKSAQISKKLNPAEPTKPLSMGFGFVQFYTAFDAKTALKDMQGELLDGHSLELKISHRENADKGALKRKEVKQKEQGECTKLLVRNLPFEASVKEVETLFETFGAVKTIRIPKKPGQKQQHRGFGFVDFISADEAHRAFDSLVHSTHLYGRRLVLEWAKDDETVEELREKTAEKFAGNKKGVKKSKAQTEEFQQQLQIADDEKD” the “soluble on expression in E. coli” value was “not soluble”.
For “MGRRRGFLTMRIPRIYHPEPLTSHSHIALCEDAANHIGRVLRMGPGQALQLFDGSNQVFDAEITSASKKSVEVKVLEGQIDDRESPLHIHLGQVMSRGEKMEFTIQKSIELGVSLITPLFSERCGVKLDSERLNKKLQQWQKIAIAACEQCGRNRVPEIRPAMDLEAWCAEQDEGLKLNLHPRASNSINTLPLPVERVRLLIGPEGGLSADEIAMTARYQFTDILLGPRVLRTETTALTAITALQVRFGDLGLEHHHHHH”, the “soluble on expression in E. coli” value was “not soluble”.
With “MIIDINRLDRAFDLIKEGVSKGVFPGAVAAVGTRERVIRLESFGNRCLYPEKLSMNKDTLFDLASLTKVVATNTLFMIFLEKGLISVYDNVSYYLEKFKGKNKDDVTIFNLLTHTAGFVPCKPLYKLCKGYEDSIDYICRCGLSYKPGTKCVYSDFSYILLAYILEKIGGDTLDILCDRYIFKPLYMENTTFKPKGNNIAATEIDKKTKKPLIGVCHDENGRFFGGISGHAGLFSDIYDLCKFSNMLVNEGKGIISYASFKAMTTNHTLGLEDNRGYGWCIKGDKNSFMGDIAFPETFGHNGFTGTSLWVDIKNNIYAILLTNRVHPTRDNLRIIRFRRVFSNAVLASLTR” the “soluble on expression in E. coli” value was “not soluble”.
In the case of “MRTSSGQILTVTKEISLQASPTEIWSELIHINEVDSIEKKSIISSTLGFPRHIRTHLDTARVGGKRTAYYEKGLTFEETITAYEPERLMILDIKTDPDKISAQVMDEHILIGGKHLDILEDTYELQALSNGCSKLKLTSKFYINTPFNWYAGLWGNYLMSDILKNELELIKNRAEAKLEHHHHHH”, the “soluble on expression in E. coli” value is reported as “soluble”.
For “AHHHHHHGSKPKVFITRAIPENGINMLEEEFEVEVWEEEREIPREKLLEKVKDVDALVTMLSERIDQEVFENAPRLRIVANYAVGYDNIDVEEATRRGIYVTNTPDVLTNATADHAFALLLATARHVVKGDKFVRSGEWKRKGIAWHPKWFLGYELYGKTIGIVGFGRIGQAIARRAKGFNMRILYYSRTRKSQAEKELGAEYRPLEEVLKESDFVILAVPLTKETMYMINEERLKLMKPTAILVNIARGKVVDTKALIKALKEGWIAGAGLDVFEEEPYYNEELFSLDNVVLTPHIGSATFEAREAMAELVARNLIAFKRGEIPPTLVNKEVIKIRKPGFNEQ”, the “soluble on expression in E. coli” value was “not soluble”.
For “VSQLLPSDFNLRYPANSTSIVPISDLSITQIEADPNDSTIAVLTIQVIIRVNSFNNSLNFGIATYTQKIPGFLNQDSGRIALGFRDLALNANDLIIFNGIKGDTGVDAAIQSGKDNFTINSPIGFENIIFSIQDFDSTSTNASRGELGFVIKGEFNGQILLSSTINQKIVVSEFLAENLAILNAATEFGVILKPEFNLNSNRPTASQASKDNFSINFSQAPDPR”, the “soluble on expression in E. coli” value was “soluble”.
With “PSSNGPLEGTRGKLKNKPRDRGTSPPQRAVEEFDDGEKVHLKIDPSVPNGRFHPRFDGQTGTVEGKQGDAYKVDIVDGGKEKTIIVTAAHLRRQE” the “soluble on expression in E. coli” value was “soluble”.
For “AAADSTSMSYSVTLTGPGPWGFRLQGGKDFNMPLTISRITPGSKAAQSQLSQGDLVVAIDGVNTDTMTHLEAQNKIKSASYNLSLTLQKSKRPIPISTTAPPVQTPLPVIPHQKDPALDTNGSLVAPSPSPEARASPGTPGTPELRPTFSPAFSRPSAFSSLAEASDPGPPRASLRAKTSPEGARDLLGPKALPGSSQPRQYNNPIGLYSAETLREMAQMYQMSLRGKASGVGLPGGSLPIKDLAVDSASPVYQAVIKSQNKPEDEADEWARRSSNLQSRSFRILAQMTGTEFMQDPDEEALRRSSTPIEHAPVCTSQATTPLLPASAQPPAAASPSAASPPLATAAAHTAIASASTTAPASSPADSPRPQASSYSPAVAASSAPATHTSYSEGPAAPAPKPRVVTTASIRPSVYQPVPASTYSPSPGANYSPTPYTPSPAPAYTPSPAPAYTPSPVPTYTPSPAPAYTPSPAPNYNPAPSVAYSGGPAEPASRPPWVTDDSFSQKFAPGKSTTSISKQTLPRGGPAYTPAGPQVPPLARGTVQRAERFPASSRTPLCGHCNNVIRGPFLVAMGRSWHPEEFTCAYCKTSLADVCFVEEQNNVYCERCYEQFFAPLCAKCNTKIMGEVMHALRQTWHTTCFVCAACKKPFGNSLFHMEDGEPYCEKDYINLFSTKCHGCDFPVEAGDKFIEALGHTWHDTCFICAVCHVNLEGQPFYSKKDRPLCKKHAHTINL”, the “soluble on expression in E. coli” value was “soluble”.
For “MVSRSFFLTHTFKDVSKLGEGGSYSSDIEVRHDIPWKIRIFKKEGFLGVNLHCEKEECFETKKWTFQTKFTMKLVAVSDFPVSQHDSDNSFVLKHNFKNISRLVEDERDYSDTEKHYNALWSFKIRKFNEHLGIWLICEKEIWEERRWSINLQYELKLISASGKVRSAQYTNVFGVGSLWGILKFISWNNLEKDYVTNDSIDVEVLVKIIEFTELPCTEKTFVLSHIVKNMSSIEDGWKTFSDTQTRFNIPWKLQIRRQDGFVELLLHCSKQLDESRSWSIKTEYQFKLVSTNGRSVAFYGEKVFEKPVGSGWDKLIRWENWASRCNDEFVFEASVRILNTTGIEDENDVDRFSGFAIPVEGQEYSMEKWLEMAFDH”, the “soluble on expression in E. coli” value was “not soluble”.
